Changes are numbered by the printed parent chain.
T1: cynomolgus monkey TfR ECD (Macaca fascicularis)
T1 chain: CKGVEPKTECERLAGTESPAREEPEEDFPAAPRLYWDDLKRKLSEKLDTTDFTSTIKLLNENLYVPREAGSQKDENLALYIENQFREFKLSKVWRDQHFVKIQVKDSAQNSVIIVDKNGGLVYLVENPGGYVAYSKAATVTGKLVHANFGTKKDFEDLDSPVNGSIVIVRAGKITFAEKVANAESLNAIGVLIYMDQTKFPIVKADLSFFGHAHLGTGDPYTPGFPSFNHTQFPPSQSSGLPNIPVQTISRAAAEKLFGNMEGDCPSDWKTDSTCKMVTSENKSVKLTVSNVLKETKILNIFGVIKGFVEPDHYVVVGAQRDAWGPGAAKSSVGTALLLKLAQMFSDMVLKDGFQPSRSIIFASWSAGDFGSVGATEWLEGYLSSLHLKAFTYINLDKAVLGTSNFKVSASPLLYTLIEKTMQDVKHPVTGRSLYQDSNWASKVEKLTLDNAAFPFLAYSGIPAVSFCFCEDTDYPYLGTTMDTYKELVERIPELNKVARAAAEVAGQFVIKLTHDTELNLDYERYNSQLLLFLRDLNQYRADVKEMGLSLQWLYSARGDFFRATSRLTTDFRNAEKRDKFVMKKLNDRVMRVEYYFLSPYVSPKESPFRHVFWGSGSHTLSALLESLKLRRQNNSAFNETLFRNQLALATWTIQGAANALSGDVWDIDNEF

B1: hTfR affinity peptide 1 (designed binder)
chain: QVQLVESGGGLVHPGGSLRLSCVASGTSFSLNVVTWYRQALGKQREWVATINQSEAPTYADSVKGRFTISRDGAKNTVYLQMNSLVTEDTALYYCYDRYNEIRGQGTQVTVSS
B2: hTfR affinity peptide 2 (designed binder)
chain: B1 chain with R19S, V23A, L31F, V33T, Q53G, E55G, Q81L

Tests used:
[1] = biological target: human TfR ECD (human); test: SPR
[2] = biological target: T1, cynomolgus monkey TfR ECD; test: SPR

Binder | Kd [1] | Kd [2]
B1 | 16.5 nM | 17.6 nM
B2 | 16.5 nM | 17.6 nM
